Reference: paper PMC2830092

Biological target: FLAG-Pen-2 (human) (UniProt Q9NZ42)
Experiment: STEM mass measurement

Chain of UniProt Q9NZ42 (Q9NZ42 whole entry): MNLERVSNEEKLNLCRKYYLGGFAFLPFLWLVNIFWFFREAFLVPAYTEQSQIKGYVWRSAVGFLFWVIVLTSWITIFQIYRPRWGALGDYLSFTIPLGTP

Substance “Aph1α2-HA (from UniProt Q96BI3 1-265) (natural protein)” has a stoichiometry N of 1.
